# B1: Hom including the R407H modification: modified homoserine dehydrogenase, arginine at position 407 substituted with histidine (protein)
# chain: MTSASAPSFNPGKGPGSAVGIALLGFGTVGTEVMRLMTEYGDELAHRIGGPLEVRGIAVSDISKPREGVAPELLTEDAFALIEREDVDIVVEVIGGIEYPREVVLAALKAGKSVVTANKALVAAHSAELADAAEAANVDLYFEAAVAGAIPVVGPLRRSLAGDQIQSVMGIVNGTTNFILDAMDSTGADYADSLAEATRLGYAEADPTADVEGHDAASKAAILASIAFHTRVTADDVYCEGISNISAADIEAAQQAGHTIKLLAICEKFTNKEGKSAISARVHPTLLPVSHPLASVNKSFNAIFVEAEAAGRLMFYGNGAGGAPTASAVLGDVVGAARNKVHGGRAPGESTYANLPIADFGETTTRYHLDMDVEDRVGVLAELASLFSEQGISLRTIRQEERDDDAHLIVVTHSALESDLSRTVELLKAKPVVKAINSVIRLERD
# modifications: homoserine dehydrogenase R407H
# notes: modified homoserine dehydrogenase, arginine at position 407 substituted with histidine
# Target: T1, homoserine dehydrogenase (Hom) (Corynebacterium glutamicum, UniProt P08499, R407H)
# T1 construct: each supernatant was recovered through two centrifugations (13,000 rpm, 4° C., 30 minutes) and used as a crude extract for measuring the activity of Hom; endogenous in cells; host or cells: Crude cell extracts of Corynebacterium glutamicum ATCC13032 (wild type) and of CA09-0900 (ATCC13032 with chromosomal hom R407H)
# Test: Measurement of Hom activity (U) and desensitization by L-threonine in crude extracts
# Assay type: biochemical
# Settings: 10 mM L-threonine, compared with wild-type Hom
# Procedure: The activity of the enzyme Hom was measured in the prepared strain. The wild-type strain ATCC13032 (the control group) and the CA09-0900 strain prepared in Example 4 were each inoculated into 25 mL of the seed medium and cultured until the strains reached the late log phase. The cells of each strain were recovered by centrifugation, washed twice with a 0.1 M potassium phosphate buffer (pH 7.6), and finally suspended in 2 mL of the same buffer containing glycerol at a concentration of 30%. Each cell suspension was physically disrupted by a conventional glass bead vortexing method for 10 minutes, and each supernatant was recovered through two centrifugations (13,000 rpm, 4° C., 30 minutes) and used as a crude extract for measuring the activity of Hom. For the measurement of the activity of Hom, a […] (0.1 mL) was added to a reaction solution for measuring the enzyme activity (a potassium phosphate (pH 7.0) buffer, 25 mM NADPH, 5 mM aspartate semi-aldehyde) and reacted at 30° C. The Hom enzyme activity U was defined as the number of NADPH consumed per minute according to the presence of L-threonine (0 mM, 10 mM), and the measurement results of the enzyme activity are shown in Table 2 below.
molecule,measurement,value
B1,desensitization to L-threonine,the inhibition of the activity was reduced

# Reference: patent publication US10982244B2, “Modified homoserine dehydrogenase and method for producing homoserine or L-amino acid derived from homoserine using the same” (CJ CHEILJEDANG CORPORATION, priority 2018, dated 2021)
